# Data as given in patent US9186389B2, “Nanoparticles containing pH-responsive peptide” (Taiho Pharmaceutical Co., Ltd., priority 2011, dated 2015).
# * marks the point of attachment. Stearoyl = CCCCCCCCCCCCCCCCCC(=O)*
# Assay: CD spectra under different pH conditions with predicted secondary structure
# Type: physicochemical
# Conditions: peptide concentration 20 μM, PBS (−), pH 7.4, 6.5, 6.0, 5.5
# Protocol: The peptide obtained in Production Example 1 alone and liposome 1 obtained as in Example 1 (each having a peptide concentration of 20 μM) were suspended in PBS (−) having different pH, and CD (circular dichroism) spectra were recorded on a J-720WI spectropolarimeter (produced by JASCO Corporation). Then, analysis software (see JWSSE-480; Molecular Membrane Biology, July, August 2007; 24 (4): 282-293) was used to predict the composition of the secondary structure in the spectra.
# In FIG. 9 below, the “α-helix” represents an a helix structure; the “coil” represents a random coil structure (not forming a clear secondary structure); and “turn” represents a bending structure.
substance,measurement,value
C17H35—C(O)-GGGGHGAHEHAGHEHAAGEHHAHE-NH2 (Stearoyl-GGGGHGAHEHAGHEHAAGEHHAHE-NH2; SMILES CCCCCCCCCCCCCCCCCC(=O)NCC(=O)NCC(=O)NCC(=O)NCC(=O)N[C@@H](Cc1c[nH]cn1)C(=O)NCC(=O)N[C@@H](C)C(=O)N[C@@H](Cc1c[nH]cn1)C(=O)N[C@@H](CCC(=O)O)C(=O)N[C@@H](Cc1c[nH]cn1)C(=O)N[C@@H](C)C(=O)NCC(=O)N[C@@H](Cc1c[nH]cn1)C(=O)N[C@@H](CCC(=O)O)C(=O)N[C@@H](Cc1c[nH]cn1)C(=O)N[C@@H](C)C(=O)N[C@@H](C)C(=O)NCC(=O)N[C@@H](CCC(=O)O)C(=O)N[C@@H](Cc1c[nH]cn1)C(=O)N[C@@H](Cc1c[nH]cn1)C(=O)N[C@@H](C)C(=O)N[C@@H](Cc1c[nH]cn1)C(=O)N[C@@H](CCC(=O)O)C(N)=O) [Compound 1],structural change with pH (CD spectrum),a structural change does not occur unless the pH is lowered to 6.0
